Article PMC7506551, “A heterotrimeric SMARCB1–SMARCC2 subcomplex is required for the assembly and tumor suppression function of the BAF chromatin-remodeling complex” (Cell Discovery, 2020)
Blank lines part the entries; values can stand above or below the binder they belong to.

How the values were obtained:
SMARCB1 (aa 169–385) = target: T1, SMARCB1 (aa 169–385) (human, UniProt Q12824 169-385); assay: ITC; conditions not shown; two-site binding model for SMARCC2 325-518 with SMARCB1 169-385; settings: both partners purified
T1 construct: SMARCB1/BAF47/INI1/SNF5, human, residues 169-385, holds the Rpt1 and Rpt2 motifs; resolved 184-356 in the crystal; they may stand in the supplementary information; also called SMARCB1^(169–385); BAF47

[1] = target: T2, SWIRM domain of SMARCC2 (aa 423–518) (human, UniProt Q8TAQ2 423-518); assay: as above; settings: both partners purified
T2 construct: SMARCC2/BAF170, human, SWIRM domain, residues 423-518; also called SMARCC2^(423–518); SMARCC2^SWIRM

- Kd of one of the two sites (two-site binding model) (SMARCB1 (aa 169–385)): 112 nM
B1: SMARCC2 (aa 325–518) (domain or fragment, human, UniProt Q8TAQ2 325-518, looked up)
chain: TKSKRGHREEEQEDLTKDMDEPSPVPNVEEVTLPKTVNTKKDSESAPVKGGTMTDLDEQEDESMETTGKDEDENSTGNKGEQTKNPDLHEDNVTEQTHHIIIPSYAAWFDYNSVHAIERRALPEFFNGKNKSKTPEIYLAYRNFMIDTYRLNPQEYLTSTACRRNLAGDVCAIMRVHAFLEQWGLINYQVDAES
notes: SMARCC2/BAF170, human, residues 325-518, holds the SWIRM domain; resolved 423-514 in the crystal, residues 325-422 possibly degraded during crystallization; Two copies stand in the heterotrimer with one SMARCB1 169-385; also called SMARCC2^(325–518); BAF170

- Kd [1]: ~120 nM
B2: isolated Rpt1 motif of SMARCB1 (domain or fragment)
chain: DDHDPAVIHENASQPEVLVPIRLDMEIDGQKLRDAFTWNMNEKLMTPEMFSEILCDDLDLNPLTFVPAIASAIRQQIESYPTDS
